In patent publication US20180155451A1 (published 2018):

T1: FcγRIIb extracellular domain with C-terminal His tag (human, UniProt P31994 43-217)
T1 construct: extracellular domain; Soluble receptor expressed in FreeStyle293 cells and used as analyte in Biacore; also called FcgRIIb; 2b; not shown: His tag at the C terminus
T1 sequence (looked up): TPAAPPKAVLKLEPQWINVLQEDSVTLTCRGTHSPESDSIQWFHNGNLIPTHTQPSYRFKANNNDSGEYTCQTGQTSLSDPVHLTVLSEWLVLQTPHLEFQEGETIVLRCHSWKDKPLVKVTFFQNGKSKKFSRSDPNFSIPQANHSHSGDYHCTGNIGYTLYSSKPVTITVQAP

B1: heterodimerized antibody GpH7-A5/GpH7-B3 variant Y296_12R/GpL16-k0 (antibody, human IgG1, kappa)
heavy 1: not shown
heavy 2: not shown
light: DIVMTQSPLSLPVTPGEPASISCQASESLVHSNRNTYLHWYLQKPGQSPQLLIYKVSNRFSGVPDRFSGSGSGTDFTLKISRVEAEDVGVYYCSQNTHVPPTFGQGTKVEIERTVAAPSVFIFPPSDEQLKSGTASVVCLLNNFYPREAKVQWKVDNALQSGNSQESVTEQDSKDSTYSLSSTLTLSKADYEKHKVYACEVTHQGLSSPVTKSFNRGEC
notes: Substitution in only one H chain (GpH7-B3 side); also called He Ab
B2: heterodimerized antibody GpH7-A5/GpH7-B3 variant Y296_13S/GpL16-k0 (antibody, human IgG1, kappa)
heavy 1: not shown
heavy 2: not shown
light: B1 light
notes: as for B1
B3: heterodimerized antibody GpH7-A5/GpH7-B3 variant Y296_19Q/GpL16-k0 (antibody, human IgG1, kappa)
heavy 1: not shown
heavy 2: not shown
light: B1 light
notes: as for B1
B4: GpH7-A5/GpH7-B3 variant P271_16H/GpL16-k0 (antibody, human IgG1, kappa)
heavy 1: not shown
heavy 2: not shown
light: B1 light
notes: mutation in one H chain only; also called He Ab P271_16H; P271H
B5: GpH7-A5/GpH7-B3 variant P271_15Y/GpL16-k0 (antibody, human IgG1, kappa)
heavy 1: not shown
heavy 2: not shown
light: B1 light
notes: mutation in one H chain only; also called He Ab P271_15Y; P271Y
B6: GpH7-A5/GpH7-B3 variant Q295_04F/GpL16-k0 (antibody, human IgG1, kappa)
heavy 1: not shown
heavy 2: not shown
light: B1 light
notes: mutation in one H chain only; also called He Ab Q295_04F; Q295F
B7: GpH7-A5/GpH7-B3 variant Q295_03V/GpL16-k0 (antibody, human IgG1, kappa)
heavy 1: not shown
heavy 2: not shown
light: B1 light
notes: mutation in one H chain only; also called He Ab Q295_03V; Q295V
B8: GpH7-A5/GpH7-B3 variant Q295_15Y/GpL16-k0 (antibody, human IgG1, kappa)
heavy 1: not shown
heavy 2: not shown
light: B1 light
notes: mutation in one H chain only; also called He Ab Q295_15Y; Q295Y
B9: GpH7-A5/GpH7-B3 variant Q295_13S/GpL16-k0 (antibody, human IgG1, kappa)
heavy 1: not shown
heavy 2: not shown
light: B1 light
notes: mutation in one H chain only; also called He Ab Q295_13S; Q295S
B10: GpH7-A5/GpH7-B3 variant Q295_16H/GpL16-k0 (antibody, human IgG1, kappa)
heavy 1: not shown
heavy 2: not shown
light: B1 light
notes: mutation in one H chain only; also called He Ab Q295_16H; Q295H
B11: GpH7-A5/GpH7-B3 variant Q295_11K/GpL16-k0 (antibody, human IgG1, kappa)
heavy 1: not shown
heavy 2: not shown
light: B1 light
notes: mutation in one H chain only; also called He Ab Q295_11K; Q295K
B12: GpH7-A5/GpH7-B3 variant Q295_09D/GpL16-k0 (antibody, human IgG1, kappa)
heavy 1: not shown
heavy 2: not shown
light: B1 light
notes: mutation in one H chain only; also called He Ab Q295_09D; Q295D
B13: GpH7-A5/GpH7-B3 variant Q295_14T/GpL16-k0 (antibody, human IgG1, kappa)
heavy 1: not shown
heavy 2: not shown
light: B1 light
notes: mutation in one H chain only; also called He Ab Q295_14T; Q295T
B14: GpH7-A5/GpH7-B3 variant Q295_08L/GpL16-k0 (antibody, human IgG1, kappa)
heavy 1: not shown
heavy 2: not shown
light: B1 light
notes: mutation in one H chain only; also called He Ab Q295_08L; Q295L
B15: GpH7-A5/GpH7-B3 variant P329_02A/GpL16-k0 (antibody, human IgG1, kappa)
heavy 1: not shown
heavy 2: not shown
light: B1 light
notes: mutation in one H chain only; also called He Ab P329_02A; P329A
B16: GpH7-A5/GpH7-B3 variant Q295_18N/GpL16-k0 (antibody, human IgG1, kappa)
heavy 1: not shown
heavy 2: not shown
light: B1 light
notes: mutation in one H chain only; also called He Ab Q295_18N; Q295N
B17: GpH7-A5/GpH7-B3 variant Q295_05P/GpL16-k0 (antibody, human IgG1, kappa)
heavy 1: not shown
heavy 2: not shown
light: B1 light
notes: mutation in one H chain only; also called He Ab Q295_05P; Q295P
B18: GpH7-A5/GpH7-B3 variant P329_01G/GpL16-k0 (antibody, human IgG1, kappa)
heavy 1: not shown
heavy 2: not shown
light: B1 light
notes: mutation in one H chain only; also called He Ab P329_01G; P329G
B19: GpH7-A5/GpH7-B3 variant P271_14T/GpL16-k0 (antibody, human IgG1, kappa)
heavy 1: not shown
heavy 2: not shown
light: B1 light
notes: mutation in one H chain only; also called He Ab P271_14T; P271T
B20: GpH7-A5/GpH7-B3 variant S239_01G/GpL16-k0 (antibody, human IgG1, kappa)
heavy 1: not shown
heavy 2: not shown
light: B1 light
notes: mutation in one H chain only; also called He Ab S239_01G; S239G
B21: GpH7-A5/GpH7-B3 variant Q295_07I/GpL16-k0 (antibody, human IgG1, kappa)
heavy 1: not shown
heavy 2: not shown
light: B1 light
notes: mutation in one H chain only; also called He Ab Q295_07I; Q295I
B22: GpH7-B3 variant P271_14T/GpL16-k0 (antibody, human IgG1, kappa)
heavy: not shown
light: B1 light
notes: mutation in both H chains; also called Ho Ab P271_14T; P271T
B23: GpH7-B3 variant P271_16H/GpL16-k0 (antibody, human IgG1, kappa)
heavy: not shown
light: B1 light
notes: mutation in both H chains; also called Ho Ab P271_16H; P271H
B24: GpH7-B3 variant Q295_08L/GpL16-k0 (antibody, human IgG1, kappa)
heavy: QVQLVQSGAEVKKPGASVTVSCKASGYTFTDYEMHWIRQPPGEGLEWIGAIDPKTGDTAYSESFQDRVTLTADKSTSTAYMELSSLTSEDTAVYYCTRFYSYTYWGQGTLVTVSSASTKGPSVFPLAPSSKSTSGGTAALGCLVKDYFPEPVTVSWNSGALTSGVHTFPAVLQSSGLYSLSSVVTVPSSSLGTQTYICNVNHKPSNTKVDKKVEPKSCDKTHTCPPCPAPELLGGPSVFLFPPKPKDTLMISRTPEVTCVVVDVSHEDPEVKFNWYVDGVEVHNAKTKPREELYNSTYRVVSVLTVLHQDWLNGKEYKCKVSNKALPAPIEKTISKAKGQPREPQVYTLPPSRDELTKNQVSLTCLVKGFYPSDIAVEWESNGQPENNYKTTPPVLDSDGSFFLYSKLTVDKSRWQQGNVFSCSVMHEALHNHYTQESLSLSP
light: B1 light
notes: mutation in both H chains; also called Ho Ab Q295_08L; Q295L
B25: GpH7-B3 variant Q295_18N/GpL16-k0 (antibody, human IgG1, kappa)
heavy: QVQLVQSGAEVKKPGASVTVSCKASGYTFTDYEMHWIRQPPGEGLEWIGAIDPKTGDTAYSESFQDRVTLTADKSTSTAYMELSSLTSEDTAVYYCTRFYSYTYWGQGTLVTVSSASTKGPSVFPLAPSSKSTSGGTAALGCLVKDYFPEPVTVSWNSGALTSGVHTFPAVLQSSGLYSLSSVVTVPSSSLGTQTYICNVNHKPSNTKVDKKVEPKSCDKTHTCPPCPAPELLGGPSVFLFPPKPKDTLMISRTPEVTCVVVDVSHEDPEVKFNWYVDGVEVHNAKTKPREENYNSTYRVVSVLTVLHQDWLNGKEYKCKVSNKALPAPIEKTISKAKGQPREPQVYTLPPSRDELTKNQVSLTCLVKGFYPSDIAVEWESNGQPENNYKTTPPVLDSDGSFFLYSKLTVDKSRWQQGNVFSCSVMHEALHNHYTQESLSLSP
light: B1 light
notes: mutation in both H chains; also called Ho Ab Q295_18N; Q295N
B26: GpH7-B3 variant Q295_15Y/GpL16-k0 (antibody, human IgG1, kappa)
heavy: not shown
light: B1 light
notes: mutation in both H chains; also called Ho Ab Q295_15Y; Q295Y
B27: GpH7-B3 variant Q295_11K/GpL16-k0 (antibody, human IgG1, kappa)
heavy: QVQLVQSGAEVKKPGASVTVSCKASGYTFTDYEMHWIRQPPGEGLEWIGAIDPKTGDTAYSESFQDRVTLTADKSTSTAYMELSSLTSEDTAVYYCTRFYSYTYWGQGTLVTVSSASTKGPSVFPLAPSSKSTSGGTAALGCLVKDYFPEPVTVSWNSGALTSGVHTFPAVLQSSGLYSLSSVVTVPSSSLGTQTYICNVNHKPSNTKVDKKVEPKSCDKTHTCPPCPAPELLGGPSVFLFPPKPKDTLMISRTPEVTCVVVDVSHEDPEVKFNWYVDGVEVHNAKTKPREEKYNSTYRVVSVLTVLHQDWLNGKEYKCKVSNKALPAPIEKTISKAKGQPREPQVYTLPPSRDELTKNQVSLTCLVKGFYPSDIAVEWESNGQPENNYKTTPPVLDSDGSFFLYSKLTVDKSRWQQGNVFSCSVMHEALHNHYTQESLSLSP
light: B1 light
notes: mutation in both H chains; also called Ho Ab Q295_11K; Q295K
B28: GpH7-B3 variant Q295_09D/GpL16-k0 (antibody, human IgG1, kappa)
heavy: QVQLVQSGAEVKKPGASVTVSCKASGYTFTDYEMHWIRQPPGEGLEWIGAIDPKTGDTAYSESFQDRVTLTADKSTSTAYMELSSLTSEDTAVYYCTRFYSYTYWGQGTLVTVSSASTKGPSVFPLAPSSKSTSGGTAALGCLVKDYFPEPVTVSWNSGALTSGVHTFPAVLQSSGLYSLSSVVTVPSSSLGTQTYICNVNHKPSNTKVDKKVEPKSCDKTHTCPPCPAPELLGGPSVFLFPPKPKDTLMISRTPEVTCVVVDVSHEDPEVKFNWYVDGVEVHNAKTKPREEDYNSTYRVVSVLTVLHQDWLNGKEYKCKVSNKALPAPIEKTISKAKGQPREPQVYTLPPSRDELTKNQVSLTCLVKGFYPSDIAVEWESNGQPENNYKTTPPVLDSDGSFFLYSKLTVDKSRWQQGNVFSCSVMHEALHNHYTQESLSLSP
light: B1 light
notes: mutation in both H chains; also called Ho Ab Q295_09D; Q295D
B29: GpH7-B3 variant Q295_04F/GpL16-k0 (antibody, human IgG1, kappa)
heavy: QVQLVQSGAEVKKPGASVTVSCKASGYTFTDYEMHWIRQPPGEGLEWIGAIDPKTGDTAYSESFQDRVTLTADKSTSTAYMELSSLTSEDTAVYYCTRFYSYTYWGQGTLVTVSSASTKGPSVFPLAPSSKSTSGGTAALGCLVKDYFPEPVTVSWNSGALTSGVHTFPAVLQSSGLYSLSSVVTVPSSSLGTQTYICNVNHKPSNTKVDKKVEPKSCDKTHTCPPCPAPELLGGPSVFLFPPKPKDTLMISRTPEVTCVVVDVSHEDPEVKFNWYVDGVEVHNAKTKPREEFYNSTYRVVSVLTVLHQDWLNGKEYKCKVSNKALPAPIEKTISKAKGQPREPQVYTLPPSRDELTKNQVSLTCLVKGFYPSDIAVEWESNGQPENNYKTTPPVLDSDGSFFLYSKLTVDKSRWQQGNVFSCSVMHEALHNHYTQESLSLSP
light: B1 light
notes: mutation in both H chains; also called Ho Ab Q295_04F; Q295F
B30: GpH7-B3 variant S239_01G/GpL16-k0 (antibody, human IgG1, kappa)
heavy: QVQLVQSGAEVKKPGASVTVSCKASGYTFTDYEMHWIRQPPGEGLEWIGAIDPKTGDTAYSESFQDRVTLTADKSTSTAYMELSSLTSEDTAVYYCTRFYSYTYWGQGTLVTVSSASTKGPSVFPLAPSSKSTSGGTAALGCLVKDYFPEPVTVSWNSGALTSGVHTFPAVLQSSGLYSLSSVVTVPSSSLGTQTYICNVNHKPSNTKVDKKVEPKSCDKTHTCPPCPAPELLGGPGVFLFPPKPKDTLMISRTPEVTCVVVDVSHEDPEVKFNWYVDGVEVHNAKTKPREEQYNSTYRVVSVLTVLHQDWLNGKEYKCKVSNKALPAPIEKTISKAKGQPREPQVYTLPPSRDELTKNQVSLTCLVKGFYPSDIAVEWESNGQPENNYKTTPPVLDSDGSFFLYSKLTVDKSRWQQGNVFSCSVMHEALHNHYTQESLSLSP
light: B1 light
notes: mutation in both H chains; also called Ho Ab S239_01G; S239G
B31: GpH7-B3 variant Q295_14T/GpL16-k0 (antibody, human IgG1, kappa)
heavy: not shown
light: B1 light
notes: mutation in both H chains; also called Ho Ab Q295_14T; Q295T
B32: GpH7-B3 variant Q295_07I/GpL16-k0 (antibody, human IgG1, kappa)
heavy: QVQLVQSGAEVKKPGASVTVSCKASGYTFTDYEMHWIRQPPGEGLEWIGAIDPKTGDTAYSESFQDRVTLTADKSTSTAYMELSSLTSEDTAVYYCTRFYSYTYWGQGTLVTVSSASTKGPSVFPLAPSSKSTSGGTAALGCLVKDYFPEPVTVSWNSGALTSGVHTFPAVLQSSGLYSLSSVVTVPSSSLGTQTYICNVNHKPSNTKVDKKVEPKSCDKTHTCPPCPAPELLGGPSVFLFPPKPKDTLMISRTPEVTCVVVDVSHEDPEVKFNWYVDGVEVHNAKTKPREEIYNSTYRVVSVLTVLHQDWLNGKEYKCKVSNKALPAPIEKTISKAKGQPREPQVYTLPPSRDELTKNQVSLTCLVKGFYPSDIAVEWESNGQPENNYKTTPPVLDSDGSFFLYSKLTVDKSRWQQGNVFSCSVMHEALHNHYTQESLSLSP
light: B1 light
notes: mutation in both H chains; also called Ho Ab Q295_07I; Q295I
B33: GpH7-B3 variant Q295_16H/GpL16-k0 (antibody, human IgG1, kappa)
heavy: not shown
light: B1 light
notes: mutation in both H chains; also called Ho Ab Q295_16H; Q295H
B34: GpH7-B3 variant P271_15Y/GpL16-k0 (antibody, human IgG1, kappa)
heavy: not shown
light: B1 light
notes: mutation in both H chains; also called Ho Ab P271_15Y; P271Y
B35: GpH7-B3 variant P329_01G/GpL16-k0 (antibody, human IgG1, kappa)
heavy: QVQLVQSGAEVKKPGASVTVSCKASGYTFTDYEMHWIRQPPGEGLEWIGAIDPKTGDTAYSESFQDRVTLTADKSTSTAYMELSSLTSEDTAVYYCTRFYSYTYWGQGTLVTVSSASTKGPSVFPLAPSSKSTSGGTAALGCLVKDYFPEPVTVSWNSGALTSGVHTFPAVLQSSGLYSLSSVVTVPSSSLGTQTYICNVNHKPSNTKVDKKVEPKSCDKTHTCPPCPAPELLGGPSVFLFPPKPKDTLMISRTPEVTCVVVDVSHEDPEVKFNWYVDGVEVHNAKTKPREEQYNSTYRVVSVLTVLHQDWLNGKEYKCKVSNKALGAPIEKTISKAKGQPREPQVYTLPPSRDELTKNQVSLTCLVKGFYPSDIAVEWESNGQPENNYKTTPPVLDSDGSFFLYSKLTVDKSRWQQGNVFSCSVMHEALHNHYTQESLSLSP
light: B1 light
notes: mutation in both H chains; also called Ho Ab P329_01G; P329G
B36: GpH7-B3 variant P329_02A/GpL16-k0 (antibody, human IgG1, kappa)
heavy: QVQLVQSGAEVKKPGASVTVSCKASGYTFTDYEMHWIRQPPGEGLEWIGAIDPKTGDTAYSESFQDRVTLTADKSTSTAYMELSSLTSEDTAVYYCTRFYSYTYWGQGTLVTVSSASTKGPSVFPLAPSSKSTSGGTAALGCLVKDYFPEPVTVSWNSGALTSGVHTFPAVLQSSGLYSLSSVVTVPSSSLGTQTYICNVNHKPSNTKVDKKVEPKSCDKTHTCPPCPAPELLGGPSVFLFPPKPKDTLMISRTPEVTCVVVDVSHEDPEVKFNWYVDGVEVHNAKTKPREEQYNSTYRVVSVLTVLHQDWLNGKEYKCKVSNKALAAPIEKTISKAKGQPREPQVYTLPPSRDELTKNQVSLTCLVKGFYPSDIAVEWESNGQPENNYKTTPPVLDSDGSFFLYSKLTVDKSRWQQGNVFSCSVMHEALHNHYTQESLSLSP
light: B1 light
notes: mutation in both H chains; also called Ho Ab P329_02A; P329A
B37: GpH7-B3 variant Q295_05P/GpL16-k0 (antibody, human IgG1, kappa)
heavy: not shown
light: B1 light
notes: mutation in both H chains; also called Ho Ab Q295_05P; Q295P
B38: GpH7-B3 variant Q295_03V/GpL16-k0 (antibody, human IgG1, kappa)
heavy: not shown
light: B1 light
notes: mutation in both H chains; also called Ho Ab Q295_03V; Q295V
B39: GpH7-B3 variant Q295_13S/GpL16-k0 (antibody, human IgG1, kappa)
heavy: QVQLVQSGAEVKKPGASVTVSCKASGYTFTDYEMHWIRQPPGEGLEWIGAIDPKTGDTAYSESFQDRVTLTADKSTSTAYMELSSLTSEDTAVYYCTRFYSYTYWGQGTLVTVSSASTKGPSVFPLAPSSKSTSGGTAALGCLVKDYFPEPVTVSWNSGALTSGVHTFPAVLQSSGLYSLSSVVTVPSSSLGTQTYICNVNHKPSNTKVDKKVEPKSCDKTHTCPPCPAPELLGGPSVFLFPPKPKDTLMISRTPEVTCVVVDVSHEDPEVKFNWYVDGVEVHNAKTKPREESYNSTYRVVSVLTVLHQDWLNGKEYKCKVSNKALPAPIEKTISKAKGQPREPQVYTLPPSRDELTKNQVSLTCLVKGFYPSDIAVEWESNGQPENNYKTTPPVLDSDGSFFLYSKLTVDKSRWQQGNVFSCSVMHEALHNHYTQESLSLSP
light: B1 light
notes: mutation in both H chains; also called Ho Ab Q295_13S; Q295S

Target: T2, FcγRIa extracellular domain with C-terminal His tag (human, UniProt P12314 16-292)
T2 construct: extracellular domain; Soluble receptor expressed in FreeStyle293 cells and used as analyte in Biacore; also called FcgRI; 1a; not shown: His tag at the C terminus
Assay: SPR Biacore; relative binding to FcγRIa divided by that to FcγRIIb
T2 sequence (P12314 16-292): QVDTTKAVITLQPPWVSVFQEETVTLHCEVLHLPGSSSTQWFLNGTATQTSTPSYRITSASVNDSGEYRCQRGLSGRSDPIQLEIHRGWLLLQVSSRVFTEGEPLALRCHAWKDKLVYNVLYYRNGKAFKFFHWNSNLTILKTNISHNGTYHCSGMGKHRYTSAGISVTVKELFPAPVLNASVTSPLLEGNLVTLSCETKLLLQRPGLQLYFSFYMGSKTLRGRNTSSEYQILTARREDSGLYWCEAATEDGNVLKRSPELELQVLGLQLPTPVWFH

Row | Ia/IIb He_1a/2b | Binder
1 | 1.34 ratio of He/Con_1a to He/Con_2b | B1
2 | 1.22 ratio of He/Con_1a to He/Con_2b | B2
3 | 1.25 ratio of He/Con_1a to He/Con_2b | B3

Target: T2, FcγRIa extracellular domain with …
Assay: SPR Biacore, relative binding amount

Row | He/Con_1a | Binder
4 | 106 % of GpH7-A5/GpH7-B3/GpL16-k0 (=100) | B1
5 | 105 % of GpH7-A5/GpH7-B3/GpL16-k0 (=100) | B2
6 | 112 % of GpH7-A5/GpH7-B3/GpL16-k0 (=100) | B3

Target: T1, FcγRIIb extracellular domain with …
Assay: SPR Biacore, relative binding amount

Row | He/Con_2b | Binder
7 | 79.5 % of GpH7-A5/GpH7-B3/GpL16-k0 (=100) | B1
8 | 86.3 % of GpH7-A5/GpH7-B3/GpL16-k0 (=100) | B2
9 | 89.3 % of GpH7-A5/GpH7-B3/GpL16-k0 (=100) | B3

Target: T3, FcγRIa extracellular domain with C-terminal His tag (human, UniProt P12314 16-292)
T3 construct: extracellular domain; also called FcgRI; CD64; not shown: His tag at the C terminus
Assay: SPR Biacore, relative FcγRIa binding vs GpH7-A5/GpH7-B3/GpL16-k0
T3 sequence (P12314 16-292): as above

Row | He/Con_1a | Binder
10 | 102 % of HeCon Ab (=100) | B4
11 | 103 % of HeCon Ab (=100) | B5
12 | 102 % of HeCon Ab (=100) | B6
13 | 104 % of HeCon Ab (=100) | B7
14 | 102 % of HeCon Ab (=100) | B8
15 | 102 % of HeCon Ab (=100) | B9
16 | 102 % of HeCon Ab (=100) | B10
17 | 101 % of HeCon Ab (=100) | B11
18 | 100 % of HeCon Ab (=100) | B12
19 | 103 % of HeCon Ab (=100) | B13
20 | 105 % of HeCon Ab (=100) | B14
21 | 102 % of HeCon Ab (=100) | B15
22 | 102 % of HeCon Ab (=100) | B16
23 | 103 % of HeCon Ab (=100) | B17
24 | 101 % of HeCon Ab (=100) | B18
25 | 102 % of HeCon Ab (=100) | B19
26 | 101 % of HeCon Ab (=100) | B20
27 | 103 % of HeCon Ab (=100) | B21

Target: T3, FcγRIa extracellular domain with …
Assay: SPR Biacore, relative FcγRIa binding vs GpH7-B3/GpL16-k0

Row | Ho/Con_1a | Binder
28 | 99.5 % of HoCon Ab (=100) | B22
29 | 99.4 % of HoCon Ab (=100) | B23
30 | 103 % of HoCon Ab (=100) | B24
31 | 101 % of HoCon Ab (=100) | B25
32 | 97 % of HoCon Ab (=100) | B26
33 | 99.9 % of HoCon Ab (=100) | B27
34 | 96.8 % of HoCon Ab (=100) | B28
35 | 100 % of HoCon Ab (=100) | B29
36 | 101 % of HoCon Ab (=100) | B30
37 | 102 % of HoCon Ab (=100) | B31
38 | 101 % of HoCon Ab (=100) | B32
39 | 99.1 % of HoCon Ab (=100) | B33
40 | 99.4 % of HoCon Ab (=100) | B34
41 | 89.5 % of HoCon Ab (=100) | B35
42 | 98.2 % of HoCon Ab (=100) | B36
43 | 101 % of HoCon Ab (=100) | B37
44 | 102 % of HoCon Ab (=100) | B38
45 | 101 % of HoCon Ab (=100) | B39
